Measured values published in US20130189787A1 (OPX BIOTECHNOLOGIES ,INC., priority 2008, published 2013).

Columns and labels:
E. coli = conditions: known to be toxic; cited from earlier work
[1] = test system: gram negative and gram positive bacteria; conditions: wide range of gram negative and gram positive bacteria; concentrations as low as; cited from earlier work
E. coli strain BW25113 = conditions: 20 g/L 3-HP, putrescine 0.1 g/L
Experimental: The control E. coli strain BW25113 and 22 of its derivatives, each derivative having a deletion of a respective one of 22 aldehyde dehydrogenases or related genes (predicted aldehyde dehydrogenases via homology, www.ecocyc.org) were cultured as described in methods in the Common Methods Section. […] These strains each contain a kanamycin marker in place of the deleted gene.
In addition, an Eppendorf external column heater is used and the data are collected using an SRI (Torrance, Calif.) analog-to-digital converter linked to a standard desk top computer. Data are analyzed using the SRI Peak Simple software. A Coregel 64H ion exclusion column (Transgenomic, Inc., San Jose, Calif.) is employed. The column resin is a sulfonated polystyrene divinyl benzene with a particle size of 10 μm and column dimensions are 300×7.8 mm The mobile phase consisted of sulfuric acid (Fisher Scientific, Pittsburgh, Pa. USA) diluted with deionized (18 MΩcm) water to a concentration of 0.02 N and vacuum filtered through a 0.2 μm nylon filter. The flow rate of the mobile phase is 0.6 mL/min. The UV detector is operated at a wavelength of 210 nm and the column is heated to 60° C.
The next day, 250 uL of the overnight cultures were inoculated into 25 mL of M9+kanamycin. […] All the intracellular and extracellular metabolites were analyzed by HPLC as described in the Common Methods Section, Subsection III.

[2] = Enzyme activity assays for dehydrogenase enzymes with 3-HP as a substrate (340 nm spectrophotometric); format: biochemical, E. coli; conditions: 1 mM 3-HP, 1 mM cofactor, 1 hour at room temperature, change in absorption at 340 nm; clarified lysates or purified enzymes
Experimental: Samples of these enzymes were isolated either as clarified lysates or as purified enzymes as described in the method reported above. As these dehydrogenases use NAD+, NADH, NADP+, NADPH or all of these molecules as cofactors for their reactions depending on reaction direction, all enzymes where tested with their known cofactors. For enzymes where the specific cofactors have not been determined or maybe unclear, all possible cofactors were evaluated.
(§1) A spectrophotometric assay was used to evaluate enzyme activity. […] Replicates of reactions were carried out to compare reactions in the presence or absence or 3-HP, and with and without enzyme. Enzymatic activities were confirmed by comparing the change in the 340 nm absorption values after 1 hour incubations to reactions performed in buffer containing 1 mM cofactor as a baseline. […] Furthermore, activity of the purified aldB enzyme was confirmed with its natural substrate (1 mM […]) as in FIG. 9B.
(§2) Reactions were carried out using one of two reaction buffers. AldA, AldB, LacZ, and Usg reactions were performed in a buffer consisting of 100 mM potassium phosphate buffer pH 7.4 with 50 mM sodium chloride. Likewise, puuC reactions were performed in a buffer consisting of 200 mM sodium bicarbonate pH 9.2 with 10 mM dithiothreitol and 30 micromolar ferrous sulphate. Where stated, all cofactors were used at 1 mM in the final reaction buffer. […] After one hour incubations at room temperature, the samples were diluted 1 to 20 in water and measured with a Beckmann DU530 spectrometer set at 340 nm.

[3] = Enzyme activity assay of purified aldB with its natural substrate; format: biochemical, E. coli; conditions: 1 mM acetate, FIG. 9B
Experimental: as §1, §2

## O=CCCO [3-HPA, 3-hydroxypropionaldehyde]
E. coli
  toxicity to E. coli: toxic
[1]
  concentration toxic to bacteria: ≥ 15 mM

## NCCCCN [putrescine]
E. coli strain BW25113; 20 hours, FIG. 7
  level of aldehyde in response to 3-HP: greater level
E. coli strain BW25113; puuC deletion strain, FIG. 8
  level of aldehyde in response to 3-HP in a strain lacking the puuC gene: elevated levels

B1: usg: E. coli aldehyde dehydrogenase not listed in Table 1 (SEQ ID NO: 121) (protein, listed as Escherichia coli)
chain: MSEGWNIAVLGATGAVGEALLETLAERQFPVGEIYALARNESAGEQLRFGGKTITVQDAAEFDWTQAQLAFFVAGKEATAAWVEEATNSGCLVIDSSGLFALEPDVPLVVPEVNPFVLTDYRNRNVIAVPDSLTSQLLAALKPLIDQGGLSRISVTSLISASAQGKKAVDALAGQSAKLLNGIPIDEEDFFGRQLAFNMLPLLPDSEGSVREERRIVDEVRKILQDEGLMISASVVQAPVFYGHAQMVNFEALRPLAAEEARDAFVQGEDIVLSEENEFPTQVGDASGTPHLSVGCVRNDYGMPEQVQFWSVADNVRFGGALMAVKIAEKLVQEYLY
[2]
  enzymatic activity using 3-HP as a substrate: showed activity

B2: aldA: E. coli aldehyde dehydrogenase A, his-tagged, over-expressed (SEQ ID NO 023) (protein, listed as Escherichia coli)
chain: MSVPVQHPMYIDGQFVTWRGDAWIDVVNPATEAVISRIPDGQAEDARKAIDAAERAQPEWEALPAIERASWLRKISAGIRERASEISALIVEEGGKIQQLAEVEVAFTADYIDYMAEWARRYEGEIIQSDRPGENILLFKRALGVTTGILPWNFPFFLIARKMAPALLTGNTIVIKPSEFTPNNAIAFAKIVDEIGLPRGVFNLVLGRGETVGQELAGNPKVAMVSMTGSVSAGEKIMATAAKNITKVCLELGGKAPAIVMDDADLELAVKAIVDSRVINSGQVCNCAERVYVQKGIYDQFVNRLGEAMQAVQFGNPAERNDIAMGPLINAAALERVEQKVARAVEEGARVAFGGKAVEGKGYYYPPTLLLDVRQEMSIMHEETFGPVLPVVAFDTLEDAISMANDSDYGLTSSIYTQNLNVAMKAIKGLKFGETYINRENFEAMQGFHAGWRKSGIGGADGKHGLHEYLQTQVVYLQS
modifications: His tag
[2]
  enzymatic activity using 3-HP as a substrate: showed activity

B3: aldB: E. coli acetaldehyde dehydrogenase, his-tagged, over-expressed (SEQ ID NO 024) (protein, listed as Escherichia coli)
chain: MTNNPPSAQIKPGEYGFPLKLKARYDNFIGGEWVAPADGEYYQNLTPVTGQLLCEVASSGKRDIDLALDAAHKVKDKWAHTSVQDRAAILFKIADRMEQNLELLATAETWDNGKPIRETSAADVPLAIDHFRYFASCIRAQEGGISEVDSETVAYHFHEPLGVVGQIIPWNFPLLMASWKMAPALAAGNCVVLKPARLTPLSVLLLMEIVGDLLPPGVVNVVNGAGGVIGEYLATSKRIAKVAFTGSTEVGQQIMQYATQNIIPVTLELGGKSPNIFFADVMDEEDAFFDKALEGFALFAFNQGEVCTCPSRALVQESIYERFMERAIRRVESIRSGNPLDSVTQMGAQVSHGQLETILNYIDIGKKEGADVLTGGRRKLLEGELKDGYYLEPTILFGQNNMRVFQEEIFGPVLAVTTFKTMEEALELANDTQYGLGAGVWSRNGNLAYKMGRGIQAGRVWTNCYHAYPAHAAFGGYKQSGIGRETHKMMLEHYQQTKCLLVSYSDKPLGLF
modifications: His tag
[2]
  enzymatic activity using 3-HP as a substrate: showed activity
[3]
  enzymatic activity with natural substrate: confirmed

B4: puuC: E. coli γ-glutamyl-γ-aminobutyraldehyde dehydrogenase, over-expressed (SEQ ID NO 038) (protein, listed as Escherichia coli)
chain: MNFHHLAYWQDKALSLAIENRLFINGEYTAAAENETFETVDPVTQAPLAKIARGKSVDIDRAMSAARGVFERGDWSLSSPAKRKAVLNKLADLMEAHAEELALLETLDTGKPIRHSLRDDIPGAARAIRWYAEAIDKVYGEVATTSSHELAMIVREPVGVIAAIVPWNFPLLLTCWKLGPALAAGNSVILKPSEKSPLSAIRLAGLAKEAGLPDGVLNVVTGFGHEAGQALSRHNDIDAIAFTGSTRTGKQLLKDAGDSNMKRVWLEAGGKSANIVFADCPDLQQAASATAAGIFYNQGQVCIAGTRLLLEESIADEFLALLKQQAQNWQPGHPLDPATTMGTLIDCAHADSVHSFIREGESKGQLLLDGRNAGLAAAIGPTIFVDVDPNASLSREEIFGPVLVVTRFTSEEQALQLANDSQYGLGAAVWTRDLSRAHRMSRRLKAGSVFVNNYNDGDMTVPFGGYKQSGNGRDKSLHALEKFTELKTIWISLEA
[2]
  enzymatic activity using 3-HP as a substrate: showed activity
